Reference: PMC8385062, “Deciphering ion transport and ATPase coupling in the intersubunit tunnel of KdpFABC” (Nature Communications, 2021)
Positions count from the first letter of the chain named. Names and notes keep the numbering of the source.

B1: KdpFABC (nucleotide / vanadate rows, site in KdpB) (Escherichia coli K-12) (protein)
chain: MSRKQLALFEPTLVVQALKEAVKKLNPQAQWRNPVMFIVWIGSLLTTCISIAMASGAMPGNALFSAAISGWLWITVLFANFAEALAEGRSKAQANSLKGVKKTAFARKLREPKYGAAADKVPADQLRKGDIVLVEAGDIIPCDGEVIEGGASVDESAITGESAPVIRESGGDFASVTGGTRILSDWLVIECSVNPGETFLDRMIAMVEGAQRRKTPNEIALTILLIALTIVFLLATATLWPFSAWGGNAVSVTVLVALLVCLIPTTIGGLLSAIGVAGMSRMLGANVIATSGRAVEAAGDVDVLLLDKTGTITLGNRQASEFIPAQGVDEKTLADAAQLASLADETPEGRSIVILAKQRFNLRERDVQSLHATFVPFTAQSRMSGINIDNRMIRKGSVDAIRRHVEANGGHFPTDVDQKVDQVARQGATPLVVVEGSRVLGVIALKDIVKGGIKERFAQLRKMGIKTVMITGDNRLTAAAIAAEAGVDDFLAEATPEAKLALIRQYQAEGRLVAMTGDGTNDAPALAQADVAVAMNSGTQAAKEAGNMVDLDSNPTKLIEVVHIGKQMLMTRGSLTTFSIANDVAKYFAIIPAAFAATYPQLNALNIMCLHSPDSAILSAVIFNALIIVFLIPLALKGVSYKPLTASAMLRRNLWIYGLGGLLVPFIGIKVIDLLLTVCGLV
B2: KdpFABC (nucleotide / vanadate rows, site in KdpB) (Escherichia coli K-12; F232A) (protein)
chain: B1 chain with F232A

Substrate: Nc1ncnc2c1ncn2[C@@H]1O[C@H](COP(=O)(O)OP(=O)(O)OP(=O)(O)O)[C@@H](O)[C@H]1O
Assay: purified protein
Settings: 1 mM KCl, 37 °C

| Protein | Km | Km (K+-uncoupled variant) |
| --- | --- | --- |
| B1 | 150 µM |  |
| B2 |  | 100 µM |
